What was measured:
Test in all cases: EMSA
6xHis-PhoP~P [1] = biological target: T1, 6xHis-PhoP~P (Lacticaseibacillus paracasei BL23, UniProt Q03AN9 1-235)
T1 sequence: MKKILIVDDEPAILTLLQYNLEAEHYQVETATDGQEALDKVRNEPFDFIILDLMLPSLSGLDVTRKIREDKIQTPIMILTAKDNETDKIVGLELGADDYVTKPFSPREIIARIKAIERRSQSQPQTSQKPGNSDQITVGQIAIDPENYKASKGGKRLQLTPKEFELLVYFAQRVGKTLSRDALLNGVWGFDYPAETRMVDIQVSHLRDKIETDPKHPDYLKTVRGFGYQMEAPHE

6xHis-PhoP = biological target: T2, 6xHis-PhoP (Lacticaseibacillus paracasei BL23, UniProt Q03AN9 1-235)
T2 sequence: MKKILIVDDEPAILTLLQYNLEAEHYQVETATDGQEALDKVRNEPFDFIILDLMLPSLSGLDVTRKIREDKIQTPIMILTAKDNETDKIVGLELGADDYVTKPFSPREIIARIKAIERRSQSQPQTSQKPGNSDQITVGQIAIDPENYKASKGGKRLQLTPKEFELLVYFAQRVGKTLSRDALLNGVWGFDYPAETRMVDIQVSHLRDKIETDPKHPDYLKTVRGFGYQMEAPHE

6xHis-PhoP~P [2] = biological target: T1, 6xHis-PhoP~P; remark: listed apart in the source

B1: ackA promoter fragment (dsDNA)
DNA 1: GATTCGCCGAAAACCAAGAAAAAGTCATGATGCTGTGCGATTACGTGTGCGGCAATCCGACTACCCGTTTAGAGGAGGAAAAAAACAATGGCAAAAATTCTCGCAGTCAACGCAGGCAGTTC
DNA 2: GAACTGCCTGCGTTGACTGCGAGAATTTTTGCCATTGTTTTTTTCCTCCTCTAAACGGGTAGTCGGATTGCCGCACACGTAATCGCACAGCATCATGACTTTTTCTTGGTTTTCGGCGAATC
- binding result (6xHis-PhoP~P [1]): no binding
- binding result (6xHis-PhoP): no binding

B2: poxL promoter fragment (dsDNA)
DNA 1: TTGATCCATGATCCTGATCATCATTAAGTTAATTTGTGAAAAAGGTTTACCAAGCATGTTATGGCGTGGTGATGCTGTATTAGTTCACTTGTTTGACTGTTATGGTGTCGTCG
DNA 2: CGACGACACCATAACAGTCAAACAAGTGAACTAATACAGCATCACCACGCCATAACATGCTTGGTAAACCTTTTTCACAAATTAACTTAATGATGATCAGGATCATGGATCAA
- binding result (6xHis-PhoP~P [1]): no binding
- binding result (6xHis-PhoP): no binding

B3: glnA promoter fragment (dsDNA)
DNA 1: TGCCAAATTAGTGACGCTATTTGCAAATTCCCCCGCGACAATTTTTAGACAATCTTTCCTTTTATTTAAAATCATGTAACATTAGGGCCGAACGATACATATGTAACGGTGTTTTTTAACC
DNA 2: GGTTAAAAAACACCGTTACATATGTATCGTTCGGCCCTAATGTTACATGATTTTAAATAAAAGGAAAGATTGTCTAAAAATTGTCGCGGGGGAATTTGCAAATAGCGTCACTAATTTGGCA
- binding signal (6xHis-PhoP~P [2]): ~10 fold more PhoP required than for pstS or phnD
